Results on three molecules are retold here after article PMC7939390 (The Journal of Biological Chemistry, 2020).

Where a chain is given by its changes, count along the chain named. Names may count otherwise.

For one data set, the system named is FtsBLQ. Conditions: cited from earlier work. The source says: In contrast, no significant change in the FA sig ...
For another data set, the system named is TPase domain of PBP1b. The note with it: 2.0 mM S2d, 1.2 μM PBP1b, FtsN 2 μM, 50 mM phosphate pH 7.0, 37 °C, 3.2 mM 4,4′-dithiodipyridine, absorbance 330 nm; representative of three independent experiments. The method, then: The activity of the TPase domain of PBP1b was measured in the presence of S2d (analog of the peptide moiety) as a mimic of donor substrates as previously described ([58], [59]). The assay was performed in a UV-Star 96-well microplate (Greiner Bio One) at 37 °C in the presence of 50 mM phosphate buffer, pH 7.0, 2.0 mM S2d, 3.2 mM 4,4′-dithiodipyridine, and 1.2 μM PBP1b. The absorbance at 330 nm was monitored with an Infinite M200 Pro microplate reader (Tecan, Männedorf, Switzerland). FtsN was used at 2 μM to test its effect on the PBP1b activity.

Data set [1] concerns the target T1, PBP1b (Escherichia coli, UniProt P02919).
T1 sequence (P02919 1-799 isoform P02919-2): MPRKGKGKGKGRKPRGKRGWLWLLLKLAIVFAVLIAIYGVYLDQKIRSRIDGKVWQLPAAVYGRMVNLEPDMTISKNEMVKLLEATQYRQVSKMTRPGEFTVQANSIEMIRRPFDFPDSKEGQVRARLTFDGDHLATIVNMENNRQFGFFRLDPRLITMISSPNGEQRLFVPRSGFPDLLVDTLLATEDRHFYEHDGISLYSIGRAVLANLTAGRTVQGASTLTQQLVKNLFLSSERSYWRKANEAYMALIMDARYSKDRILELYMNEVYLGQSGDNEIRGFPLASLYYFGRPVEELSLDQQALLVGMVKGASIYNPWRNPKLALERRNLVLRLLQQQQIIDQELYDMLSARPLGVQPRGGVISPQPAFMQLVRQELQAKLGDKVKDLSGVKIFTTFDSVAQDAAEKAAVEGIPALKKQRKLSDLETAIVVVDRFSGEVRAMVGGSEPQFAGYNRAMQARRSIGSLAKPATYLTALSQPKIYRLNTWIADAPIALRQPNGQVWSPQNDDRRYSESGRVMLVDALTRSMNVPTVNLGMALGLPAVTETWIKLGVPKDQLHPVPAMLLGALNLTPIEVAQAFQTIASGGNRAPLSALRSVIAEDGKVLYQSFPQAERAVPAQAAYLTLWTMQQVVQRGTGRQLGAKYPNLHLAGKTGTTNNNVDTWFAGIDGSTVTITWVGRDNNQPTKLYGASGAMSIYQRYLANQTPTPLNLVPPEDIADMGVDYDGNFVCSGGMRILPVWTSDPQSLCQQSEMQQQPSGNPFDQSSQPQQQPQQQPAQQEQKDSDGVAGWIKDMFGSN
Conditions: peptide versus full-length FtsN protein; 10 μM dansyl-lipid II, 30 nM PBP1bγ, pH 7.5, 30 °C.
Description: (§3) The GTase activity assays with dansyl-lipid II as substrate were performed in a medium binding black 96-well microplate (Greiner Bio One) as described ([57]). The samples contained 10 μM dansyl-lipid II, 50 mM HEPES-NaOH, pH 7.5, 200 mM NaCl, 10 mM CaCl2, 0.085% of decyl-PEG, 20% of DMSO, and 1 unit of N-acetylmuramidase of Streptomyces globisporus (Sigma). […] The reactions were initiated by the addition of 30 nM PBP1bγ (100 nM for PBP1a) and monitored by following the fluorescence decrease over 20 min at 30 °C using an Infinite 200 PRO microplate reader (Tecan, Männedorf, Switzerland) with excitation wavelength at 340 nm and emission at 520 nm.

The next data set has as its system PBP3. Conditions: cited from earlier work. From the text:
(§1) Bacteria generally have at least one bifunctional (GTase/TPase) PBP of class A and one monofunctional (TPase only) PBP of class B ([2], [13]). E. coli contains three aPBPs: PBP1a, 1b, and 1c, and two bPBPs: PBP2 and PBP3, the latter being involved in cell elongation and division, respectively ([14]). PBP1a and PBP1b are major PG synthases and at least one of them is required for cell viability ([15]).

Another data set concerns E. coli. Conditions: residue change W83L; cited from earlier work.
In data set [2] the target is T1, PBP1b. Conditions: compared with the WT protein; cited from earlier work. From the text: The stimulation of PBP1b in vitro by FtsN is well-established ([5], [28]).
Data set [3] concerns the target T1, PBP1b. The note with it: cited from earlier work.
Description: as §1

Data set [4] can be described thus: thermal stability of PBP1b^R141A-R397A at 42 °C: Bocillin binding. The note with it: 1 h at 42 °C versus 30 °C, 7 µg protein, Bocillin FL 50 µM 30 min, SDS-PAGE (Fig. S1B). As for the experimental part: (§2) Figure S1. Stability of the double mutant PBP1bR141A-R397A at 42°C. (A) The purified protein was incubated at 30°C or 42°C for 1 h and its GTase activity was monitored at the same temperature by continuous fluorescence assay using dansyl -lipid II (LII) as substrate. The error bars represent the values as mean ± s.d. of three experiments. (B) after 1h at 30°C or 42°C the protein ( 7 µg) was labelled with Bocillin FL (50 µM) for 30 min at the same temperature and analyzed by SDS-PAGE followed by fluorescence imaging (right) and Coomassie blue staining (left). 1bWT and 1bRR depict PBP1b wild-type and PBP1b double mutant R141A-R397A, respectively. M, Molecular mass marker. […]

The nature of data set [5]: thermal stability of PBP1b^R141A-R397A at 42 °C: GTase activity. The note with it: 1 h at 42 °C versus 30 °C, dansyl-lipid II, mean ± s.d. of three experiments (Fig. S1A). It is filed as biochemical. As for the experimental part: as §2
The subject of data set [6] is E. coli EJ801 (ΔponB-ponA^ts). As to the kind of experiment: microscopy of EJ801 cells, cell morphology and length. It is filed as cell-based, Escherichia coli. On the set-up: cell length L: unit not given here. The method, then: Samples were taken from the complementation cultures (42 °C) at different time (1-h intervals), and the cells were fixed as described ([63]). Photographs were taken with a cooled AxioCam MRm (Zeiss) mounted on a Zeiss Axio Imager. Z1 microscope, and the images were acquired in phase-contrast mode using the AxioVision Rel. 4.5 (Zeiss) software. The cell morphologies analysis were determined using ImageJ software (RRID:SCR_003070) running under plugin ObjectJ (RRID:SCR_019190).

The next data set concerns PBP1b^R141A/R397A. It is filed as biochemical, Escherichia coli. Conditions: dansyl-lipid II, continuous fluorescence assay; means ± S.D. of three experiments.
In data set [7] the test system is E. coli EJ801 (ΔponB-ponA^ts). As to the kind of experiment: complementation assay of E. coli EJ801 (ΔponB-ponA^ts). It is filed as cell-based, Escherichia coli. Conditions: 42 °C, 4 h, plasmids carrying ponB or mutants, LB 10 g/liter or low salt 0.5 g/liter comparable. The method, then: To test the activity of the PBP1b mutants in vivo, we tested their ability to complement E. coli strain EJ801, which lacks PBP1b and has a thermosensitive PBP1a ([33]). EJ801 cells were transformed with the corresponding plasmids and grown in LB at 30 °C with 50 µg/ml kanamycin. The preculture was then diluted in 30 ml of fresh LB ([…] NaCl) or LB with […] NaCl medium to an A600nm value of 0.04 and grown at 30 °C until A600nm = 0.1–0.3, and the absorbance of the culture was monitored for 4 h at 42 °C.

Description for PBP1b^R141A/R397A: The error bars represent the values as means ± S.D. of three experiments.
as §3
activity of the PBP1bWT and PBP1bR141A-R397A was monitored in the presence or the absence of LpoB by
continuous fluorescence assay using dansyl-lipid II (LII) as substrate. The error bars represent the values

B1: FtsN: full-length E. coli cell division protein FtsN (protein)
chain: MAQRDYVRRSQPAPSRRKKSTSRKKQRNLPAVSPAMVAIAAAVLVTFIGGLYFITHHKKEESETLQSQKVTGNGLPPKPEERWRYIKELESRQPGVRAPTEPSAGGEVKTPEQLTPEQRQLLEQMQADMRQQPTQLVEVPWNEQTPEQRQQTLQRQRQAQQLAEQQRLAQQSRTTEQSWQQQTRTSQAAPVQAQPRQSKPASSQQPYQDLLQTPAHTTAQSKPQQAAPVARAADAPKPTAEKKDERRWMVQCGSFRGAEQAETVRAQLAFEGFDSKITTNNGWNRVVIGPVKGKENADSTLNRLKMAGHTNCIRLAAGG
modifications: left off: His, end not stated, kept
Turning to B1, in the data set with FtsBLQ, the “interaction with FtsBLQ (literature)” value is recorded as “absence of strong interaction”. The “effect on TPase activity of PBP1b (S2d hydrolysis)” value in the data set on TPase domain of PBP1b is “no effect”. The “concentration required for stimulation of the GTase activity of PBP1b” value with PBP1b [1] was around 1000 nM. Moreover, the “effect on the activity of PBP3 (literature)” value with PBP3 is “no effect on the activity of PBP3”.

B2: FtsN^W83L (protein, UniProt P29131 1-319, looked up, variant W83L)
Cell division protein FtsN: B1 chain with W83L
On to B2, for which the “FtsN activity in vivo (literature)” value in the data set on E. coli is given as “impairs FtsN activity in vivo”. The “interaction with PBP1b (literature)” value with PBP1b [2] is “reduced compared with the WT protein”. In the data set with PBP1b [3], the “stimulation of PBP1b activity in vitro (literature)” value is “less able to stimulate PBP1b activity”; the “suppression of FtsBLQ-mediated inhibition of PBP1b GTase activity (literature)” value is “less able to stimulate PBP1b activity and to suppress FtsBLQ-mediated inhibition of PBP1b GTase activity in vitro”.

B3: PBP1b^R141A/R397A (protein)
chain: MAGNDREPIGRKGKPTRPVKQKVSRRRYEDDDDYDDYDDYEDEEPMPRKGKGKGKGRKPRGKRGWLWLLLKLAIVFAVLIAIYGVYLDQKIRSRIDGKVWQLPAAVYGRMVNLEPDMTISKNEMVKLLEATQYRQVSKMTAPGEFTVQANSIEMIRRPFDFPDSKEGQVRARLTFDGDHLATIVNMENNRQFGFFRLDPRLITMISSPNGEQRLFVPRSGFPDLLVDTLLATEDRHFYEHDGISLYSIGRAVLANLTAGRTVQGASTLTQQLVKNLFLSSERSYWRKANEAYMALIMDARYSKDRILELYMNEVYLGQSGDNEIRGFPLASLYYFGRPVEELSLDQQALLVGMVKGASIYNPWRNPKLALERRNLVLRLLQQQQIIDQELYDMLSAAPLGVQPRGGVISPQPAFMQLVRQELQAKLGDKVKDLSGVKIFTTFDSVAQDAAEKAAVEGIPALKKQRKLSDLETAIVVVDRFSGEVRAMVGGSEPQFAGYNRAMQARRSIGSLAKPATYLTALSQPKIYRLNTWIADAPIALRQPNGQVWSPQNDDRRYSESGRVMLVDALTRSMNVPTVNLGMALGLPAVTETWIKLGVPKDQLHPVPAMLLGALNLTPIEVAQAFQTIASGGNRAPLSALRSVIAEDGKVLYQSFPQAERAVPAQAAYLTLWTMQQVVQRGTGRQLGAKYPNLHLAGKTGTTNNNVDTWFAGIDGSTVTITWVGRDNNQPTKLYGASGAMSIYQRYLANQTPTPLNLVPPEDIADMGVDYDGNFVCSGGMRILPVWTSDPQSLCQQSEMQQQPSGNPFDQSSQPQQQPQQQPAQQEQKDSDGVAGWIKDMFGSN
As to B3, the “Bocillin-binding activity after incubation at 42 °C” value in data set [4] is listed as “not affected”. The “GTase activity after incubation at 42 °C” value in data set [5] is “not affected”. Further, in data set [6] (EJ801 after 1 h at 42 °C, n = 250, phase contrast, ImageJ/ObjectJ), the “cell length L” value was 6.14 ± 1.84. Moreover, in data set [6] (EJ801 at 42 °C (double mutant: after 1 h)), the cell phenotype result is on record as “mild elongated phenotype”. Besides, in the data set on PBP1b^R141A/R397A, the “GTase activity of mutant compared with WT protein” value is given as “minor or no difference in the GTase activity compared with the WT protein”. Further, in [7], the “restoration of growth of EJ801 at the nonpermissive temperature” value was “unable to rescue E. coli EJ801 at 42 °C”.
